Reference: US20100022402A1, “Methods and Compositions for the In Vitro High-Throughput Detection of Protein/Protein Interactions” (priority 2004, published 2010)

Assays:
[1] = target: DcDL1 lambda phage displaying gpD-c-myc fusion protein (bacteriophage lambda) (UniProt P03712); assay: bio-panning of DcDL1 SCO and DCO phage in 9E10-coated wells
[2] = target: DcDL1 lambda phage displaying gpD-c-myc fusion protein (bacteriophage lambda) (UniProt P03712); assay: bio-panning in 9E10-coated wells, reference DL1 phage
[3] = target: Lambda phage displaying SS1 scFv (DcSS1DL1), gpD-scFv-c-myc fusion protein (bacteriophage lambda) (UniProt P03712); assay: phage ELISA on anti-c-myc-coated plates, reference DcDL1
[4] = target: λD-Ubiquitin display phage (gpD fused to Ubiquitin) (bacteriophage lambda) (UniProt P03712); assay: apparent KD from titration of λD-Cue:λD-Ubiquitin co-infection by free protein
[5] = target: λD-CUE display phage (gpD fused to the CUE domain of Vps9p) (bacteriophage lambda) (UniProt P03712); assay: competition: free protein titrates λD-CUE:λD-Ubiquitin co-infection (MOI 0.04), loss of double resistant multilysogens
[6] = target: λD-CUE display phage (gpD fused to the CUE domain of Vps9p) (bacteriophage lambda) (UniProt P03712); assay: apparent KD from titration of λD-Cue:λD-Ubiquitin co-infection by free protein
[7] = target: λD-Ubiquitin display phage (gpD fused to Ubiquitin) (bacteriophage lambda) (UniProt P03712); assay: cell-based or functional assay

Chain of free wild type CUE protein (wtCUE, 50 amino acids) (P54787 402-451 limits assumed): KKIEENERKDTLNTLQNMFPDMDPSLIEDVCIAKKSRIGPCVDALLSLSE

Anti-c-myc mAb, 9E10 (antibody)
recovery of phages (percent of phages added) [1]: 2% | fold recovery over DL1 phage [2]: > 200 fold | fold less binding than DcDL1 [3]: 30 times less

free wild type CUE protein (wtCUE, 50 amino acids) (from UniProt P54787 402-451)
Kd [4]: 2 nM

free wild type Ubiquitin protein (wtUbiquitin)
IC50 [5]: 3 nM | Kd [6]: 20 nM

λD-CUE display phage (gpD fused to the CUE domain of Vps9p) (from UniProt P03712 1-110; P54787 402-451)
Cml^r/Kan^r double resistant lysogens at an MOI of 0.008 (8×10^5 phages infecting 1×10^8 cells) [7]: 150 lysogens | MOI at which double resistant multilysogens begin to contribute to the stable lysogen population [7]: 0.0001 MOI | MOI at which formation of double resistant multilysogens begins [7]: 0.03 MOI | maximum saturation point of double resistant multilysogens (% of the available cells) [7]: 25
